Test results taken from the supplement of paper PMC10567573.

B1: HSP90AB1 (parent)
chain: EADKNDKAVKDLVVLLFETALLSS
B2: BTBD1 (parent)
chain: TSAEIELPDVEPAAFLALLRFLYS

Variants of: B1
Experiment: protein stability index of a GFP-peptide fusion (GPS, HEK-293T) (PSI 1-6); higher = more stable
Conditions: c terminus: a fixed tail appended
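Further: lentivirally expressed fusions sorted by FACS into six bins by GFP to DsRed ratio, PSI derived from sequencing read proportions per bin multiplied by bin number.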

| Variant | protein stability index |
| --- | --- |
| EADKNDKAFKDLVVLLFETALLSS [V9F] | 2.17 |
| EADKNDKACKDLVVLLFETALLSS [V9C] | 1.81 |
| EADKNDKAAKDLVVLLFETALLSS [V9A] | 1.97 |
| EADKNDKAMKDLVVLLFETALLSS [V9M] | 1.8 |
| EADKNDKAQKDLVVLLFETALLSS [V9Q] | 1.7 |
| EADKNDKAPKDLVVLLFETALLSS [V9P] | 2.81 |
| EADKNDKAYKDLVVLLFETALLSS [V9Y] | 2.16 |
| EADKNDKALKDLVVLLFETALLSS [V9L] | 2.42 |
| EADKNDKAWKDLVVLLFETALLSS [V9W] | 1.7 |
| EADKNDKASKDLVVLLFETALLSS [V9S] | 2.1 |
| EADKNDKAIKDLVVLLFETALLSS [V9I] | 1.84 |
| EADKNDKARKDLVVLLFETALLSS [V9R] | 1.95 |
| EADKNDKADKDLVVLLFETALLSS [V9D] | 2.44 |
| EADKNDKAHKDLVVLLFETALLSS [V9H] | 3 |
| EADKNDSAVKDLVVLLFETALLSS [K7S] | 1.92 |
| EADKNDGAVKDLVVLLFETALLSS [K7G] | 2.17 |
| EADKNDNAVKDLVVLLFETALLSS [K7N] | 1.95 |
| EADKNDDAVKDLVVLLFETALLSS [K7D] | 2 |
| EADKNDYAVKDLVVLLFETALLSS [K7Y] | 2.79 |
| EADKNDWAVKDLVVLLFETALLSS [K7W] | 3.3 |
| EADKNDIAVKDLVVLLFETALLSS [K7I] | 2.77 |
| EADKNDAAVKDLVVLLFETALLSS [K7A] | 1.95 |

| Variant | protein stability index |
| --- | --- |
| EADKNDRAVKDLVVLLFETALLSS [K7R] | 2.02 |
| EADKNDTAVKDLVVLLFETALLSS [K7T] | 1.84 |
| EADKNDCAVKDLVVLLFETALLSS [K7C] | 1.44 |
| EADKNDHAVKDLVVLLFETALLSS [K7H] | 2 |
| EADKNDQAVKDLVVLLFETALLSS [K7Q] | 1.67 |
| EADKNDLAVKDLVVLLFETALLSS [K7L] | 2.47 |
| EADKNDMAVKDLVVLLFETALLSS [K7M] | 2.47 |
| EADKNDFAVKDLVVLLFETALLSS [K7F] | 2.32 |
| EADKNDPAVKDLVVLLFETALLSS [K7P] | 2.24 |
| EADENDKAVKDLVVLLFETALLSS [K4E] | 2.2 |
| EADMNDKAVKDLVVLLFETALLSS [K4M] | 2.13 |
| EADANDKAVKDLVVLLFETALLSS [K4A] | 1.9 |
| EADYNDKAVKDLVVLLFETALLSS [K4Y] | 2.13 |
| EADVNDKAVKDLVVLLFETALLSS [K4V] | 1.85 |
| EADCNDKAVKDLVVLLFETALLSS [K4C] | 1.87 |
| EADHNDKAVKDLVVLLFETALLSS [K4H] | 1.82 |
| EADINDKAVKDLVVLLFETALLSS [K4I] | 2 |
| EADDNDKAVKDLVVLLFETALLSS [K4D] | 2.13 |
| EADLNDKAVKDLVVLLFETALLSS [K4L] | 1.75 |
| EADWNDKAVKDLVVLLFETALLSS [K4W] | 2.12 |
| EADGNDKAVKDLVVLLFETALLSS [K4G] | 1.34 |
| EADTNDKAVKDLVVLLFETALLSS [K4T] | 2.06 |

| Variant | protein stability index |
| --- | --- |
| EADPNDKAVKDLVVLLFETALLSS [K4P] | 1.63 |
| EADRNDKAVKDLVVLLFETALLSS [K4R] | 1.59 |
| EADSNDKAVKDLVVLLFETALLSS [K4S] | 1.8 |
| EADNNDKAVKDLVVLLFETALLSS [K4N] | 2.05 |
| EADFNDKAVKDLVVLLFETALLSS [K4F] | 2.21 |
| EADQNDKAVKDLVVLLFETALLSS [K4Q] | 2.09 |
| ESDKNDKAVKDLVVLLFETALLSS [A2S] | 1.77 |
| EIDKNDKAVKDLVVLLFETALLSS [A2I] | 1.73 |
| EGDKNDKAVKDLVVLLFETALLSS [A2G] | 1.33 |
| EKDKNDKAVKDLVVLLFETALLSS [A2K] | 1.68 |
| EPDKNDKAVKDLVVLLFETALLSS [A2P] | 1.79 |
| EYDKNDKAVKDLVVLLFETALLSS [A2Y] | 1.73 |
| EMDKNDKAVKDLVVLLFETALLSS [A2M] | 1.67 |
| EVDKNDKAVKDLVVLLFETALLSS [A2V] | 2.1 |
| ELDKNDKAVKDLVVLLFETALLSS [A2L] | 1.68 |
| EQDKNDKAVKDLVVLLFETALLSS [A2Q] | 1.54 |
| ETDKNDKAVKDLVVLLFETALLSS [A2T] | 2.15 |
| EFDKNDKAVKDLVVLLFETALLSS [A2F] | 2.04 |
| ENDKNDKAVKDLVVLLFETALLSS [A2N] | 2.11 |
| EDDKNDKAVKDLVVLLFETALLSS [A2D] | 2.04 |
| ERDKNDKAVKDLVVLLFETALLSS [A2R] | 2.26 |
| ECDKNDKAVKDLVVLLFETALLSS [A2C] | 1.74 |

| Variant | protein stability index |
| --- | --- |
| EHDKNDKAVKDLVVLLFETALLSS [A2H] | 2.1 |
| EWDKNDKAVKDLVVLLFETALLSS [A2W] | 1.92 |
| EADKNDKGVKDLVVLLFETALLSS [A8G] | 1.97 |
| EADKNDKIVKDLVVLLFETALLSS [A8I] | 1.55 |
| EADKNDKWVKDLVVLLFETALLSS [A8W] | 2.07 |
| EADKNDKMVKDLVVLLFETALLSS [A8M] | 2.62 |
| EADKNDKDVKDLVVLLFETALLSS [A8D] | 2.44 |
| EADKNDKCVKDLVVLLFETALLSS [A8C] | 2.56 |
| EADKNDKRVKDLVVLLFETALLSS [A8R] | 2.19 |
| EADKNDKPVKDLVVLLFETALLSS [A8P] | 2.01 |
| EADKNDKKVKDLVVLLFETALLSS [A8K] | 1.94 |
| EADKNDKHVKDLVVLLFETALLSS [A8H] | 2.62 |
| EADKNDKNVKDLVVLLFETALLSS [A8N] | 2.2 |
| EADKNDKSVKDLVVLLFETALLSS [A8S] | 2.22 |
| EADKNDKFVKDLVVLLFETALLSS [A8F] | 2.18 |
| EADKNDKTVKDLVVLLFETALLSS [A8T] | 1.87 |
| EADKNDKLVKDLVVLLFETALLSS [A8L] | 2.43 |
| EADKNDKEVKDLVVLLFETALLSS [A8E] | 2.12 |
| EADKNDKVVKDLVVLLFETALLSS [A8V] | 1.63 |

Variants of: B2
Experiment: as above
Conditions: c terminus: a fixed tail appended

| Variant | protein stability index |
| --- | --- |
| TSAEIELPDVRPAAFLALLRFLYS [E11R] | 2.11 |
| TSAETELPDVEPAAFLALLRFLYS [I5T] | 2.18 |
| TSAEIELPDVEPAAFLALLRKLYS [F21K] | 1.78 |
| TSAEIELPDVEPAAFLALLRFLYA [S24A] | 2.19 |
| TSAEIELPDVEPAAFLALLRFLYY [S24Y] | 1.94 |
| TSAEIELPDVEPAAFLAILRFLYS [L18I] | 2.69 |
| TSAEIELPDVEPAAFLALLTFLYS [R20T] | 4.67 |
| PSAEIELPDVEPAAFLALLRFLYS [T1P] | 1.88 |
| TSAEIELPDVEPAAFLSLLRFLYS [A17S] | 1.93 |
